Laboratory results reported in the supplement of paper PMC9112550, “Optimization of the antimicrobial peptide Bac7 by deep mutational scanning” (BMC Biology, 2022).

tested on: Escherichia coli TOP10; assay: shrunken log2 fold change of peptide-encoding DNA abundance (4.5 h post-induction vs induction); higher = less antimicrobial activity (less host growth inhibition); settings: time post-induction: 4.5 h; library: site-saturation at positions 5, 18, 19, 20
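Note: peptides expressed intracellularly from a pBAD plasmid library in pooled LB shake-flask culture, induced with 0.3% L-arabinose, DNA abundance read by NGS, three biological replicates, DESeq2 with apeglm shrinkage.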

Sequence | shrunken log2 fold change
RRIRVRPPRLPRPRPRPSPNPRP | -0.271
RRIRVRPPRLPRPRPRPSQIPRP | -0.206
RRIRVRPPRLPRPRPRPSQRPRP | -0.0119
RRIRVRPPRLPRPRPRPSQSPRP | -0.146
RRIRVRPPRLPRPRPRPSRAPRP | 0.152
RRIRVRPPRLPRPRPRPSSDPRP | -0.131
RRIRVRPPRLPRPRPRPSSHPRP | -0.344
RRIRVRPPRLPRPRPRPSTQPRP | -0.0637
RRIRVRPPRLPRPRPRPSVWPRP | 0.102
RRIRVRPPRLPRPRPRPSWYPRP | -0.698
RRIRVRPPRLPRPRPRPSYHPRP | -0.819
RRIRVRPPRLPRPRPRPSYTPRP | -0.27
RRIRVRPPRLPRPRPRPSYWPRP | -0.341
RRIRVRPPRLPRPRPRPTALPRP | 0.388
RRIRVRPPRLPRPRPRPTAPPRP | 0.175
RRIRVRPPRLPRPRPRPTATPRP | 0.272
RRIRVRPPRLPRPRPRPTCGPRP | 0.0207
RRIRVRPPRLPRPRPRPTCIPRP | -0.372
RRIRVRPPRLPRPRPRPTCKPRP | -0.0395
RRIRVRPPRLPRPRPRPTCTPRP | -0.00861
RRIRVRPPRLPRPRPRPTDFPRP | -0.0704
RRIRVRPPRLPRPRPRPTDNPRP | -0.363
RRIRVRPPRLPRPRPRPTDTPRP | 0.817
RRIRVRPPRLPRPRPRPTEFPRP | -0.143
RRIRVRPPRLPRPRPRPTENPRP | 0.00381

Sequence | shrunken log2 fold change
RRIRVRPPRLPRPRPRPTGWPRP | 0.377
RRIRVRPPRLPRPRPRPTHHPRP | 0.586
RRIRVRPPRLPRPRPRPTHRPRP | 0.662
RRIRVRPPRLPRPRPRPTIEPRP | 0.061
RRIRVRPPRLPRPRPRPTNAPRP | -0.211
RRIRVRPPRLPRPRPRPTPHPRP | 0.313
RRIRVRPPRLPRPRPRPTPSPRP | 0.253
RRIRVRPPRLPRPRPRPTRMPRP | 0.0492
RRIRVRPPRLPRPRPRPTRNPRP | 0.0987
RRIRVRPPRLPRPRPRPTRPPRP | 0.822
RRIRVRPPRLPRPRPRPTTPPRP | 0.347
RRIRVRPPRLPRPRPRPTTWPRP | -0.0829
RRIRVRPPRLPRPRPRPTVKPRP | 0.0641
RRIRVRPPRLPRPRPRPTVWPRP | 0.408
RRIRVRPPRLPRPRPRPTWCPRP | 0.216
RRIRVRPPRLPRPRPRPTYYPRP | -0.315
RRIRVRPPRLPRPRPRPVCAPRP | 0.413
RRIRVRPPRLPRPRPRPVCGPRP | 0.211
RRIRVRPPRLPRPRPRPVELPRP | 0.104
RRIRVRPPRLPRPRPRPVFDPRP | -0.079
RRIRVRPPRLPRPRPRPVFEPRP | -0.0665
RRIRVRPPRLPRPRPRPVFNPRP | -0.392
RRIRVRPPRLPRPRPRPVFVPRP | -0.0229
RRIRVRPPRLPRPRPRPVGSPRP | 0.289
RRIRVRPPRLPRPRPRPVICPRP | -0.0928

Sequence | shrunken log2 fold change
RRIRVRPPRLPRPRPRPVIQPRP | -0.336
RRIRVRPPRLPRPRPRPVKCPRP | -0.163
RRIRVRPPRLPRPRPRPVKMPRP | 0.0133
RRIRVRPPRLPRPRPRPVMEPRP | -0.186
RRIRVRPPRLPRPRPRPVMVPRP | -0.166
RRIRVRPPRLPRPRPRPVMYPRP | -0.251
RRIRVRPPRLPRPRPRPVPHPRP | 0.135
RRIRVRPPRLPRPRPRPVPRPRP | -0.00795
RRIRVRPPRLPRPRPRPVPYPRP | -0.0265
RRIRVRPPRLPRPRPRPVQAPRP | -0.0106
RRIRVRPPRLPRPRPRPVQGPRP | 0.0692
RRIRVRPPRLPRPRPRPVRTPRP | 0.103
RRIRVRPPRLPRPRPRPVSPPRP | -0.146
RRIRVRPPRLPRPRPRPVTGPRP | -0.233
RRIRVRPPRLPRPRPRPVVGPRP | 0.126
RRIRVRPPRLPRPRPRPVVLPRP | 0.0921
RRIRVRPPRLPRPRPRPVWHPRP | 0.119
RRIRVRPPRLPRPRPRPVYTPRP | -0.324
RRIRVRPPRLPRPRPRPVYVPRP | -0.0177
RRIRVRPPRLPRPRPRPWAMPRP | -0.0382
RRIRVRPPRLPRPRPRPWDAPRP | -0.0951
RRIRVRPPRLPRPRPRPWDCPRP | -0.0389
RRIRVRPPRLPRPRPRPWDEPRP | -0.334
RRIRVRPPRLPRPRPRPWDNPRP | 0.0145
RRIRVRPPRLPRPRPRPWEWPRP | 0.0039

Sequence | shrunken log2 fold change
RRIRVRPPRLPRPRPRPWFYPRP | -0.373
RRIRVRPPRLPRPRPRPWHGPRP | -0.121
RRIRVRPPRLPRPRPRPWITPRP | -1.08
RRIRVRPPRLPRPRPRPWKIPRP | -0.0261
RRIRVRPPRLPRPRPRPWKNPRP | 0.0224
RRIRVRPPRLPRPRPRPWLDPRP | 0.183
RRIRVRPPRLPRPRPRPWLFPRP | 0.141
RRIRVRPPRLPRPRPRPWLMPRP | -0.136
RRIRVRPPRLPRPRPRPWLPPRP | -0.59
RRIRVRPPRLPRPRPRPWNIPRP | -0.582
RRIRVRPPRLPRPRPRPWQKPRP | 0.015
RRIRVRPPRLPRPRPRPWSTPRP | 0.00921
RRIRVRPPRLPRPRPRPWTYPRP | -1.3
RRIRVRPPRLPRPRPRPWVGPRP | -0.0497
RRIRVRPPRLPRPRPRPWVPPRP | -0.101
RRIRVRPPRLPRPRPRPWWGPRP | 0.0115
RRIRVRPPRLPRPRPRPWWHPRP | 0.0994
RRIRVRPPRLPRPRPRPWYQPRP | -0.197
RRIRVRPPRLPRPRPRPWYVPRP | -0.971
RRIRVRPPRLPRPRPRPYCHPRP | -0.0116
RRIRVRPPRLPRPRPRPYDFPRP | -0.00884
RRIRVRPPRLPRPRPRPYDLPRP | -0.121
RRIRVRPPRLPRPRPRPYEEPRP | -0.128
RRIRVRPPRLPRPRPRPYFEPRP | -0.26
RRIRVRPPRLPRPRPRPYFYPRP | -0.474

Sequence | shrunken log2 fold change
RRIRVRPPRLPRPRPRPYGDPRP | -0.168
RRIRVRPPRLPRPRPRPYHTPRP | -0.15
RRIRVRPPRLPRPRPRPYHWPRP | -0.633
RRIRVRPPRLPRPRPRPYHYPRP | -1.93
RRIRVRPPRLPRPRPRPYINPRP | -0.724
RRIRVRPPRLPRPRPRPYISPRP | -0.0821
RRIRVRPPRLPRPRPRPYKSPRP | -0.492
RRIRVRPPRLPRPRPRPYMEPRP | -0.16
RRIRVRPPRLPRPRPRPYMFPRP | -0.552
RRIRVRPPRLPRPRPRPYMSPRP | -0.583
RRIRVRPPRLPRPRPRPYQNPRP | -0.141
RRIRVRPPRLPRPRPRPYRDPRP | -0.278
RRIRVRPPRLPRPRPRPYRQPRP | -0.479
RRIRVRPPRLPRPRPRPYRWPRP | -0.355
RRIRVRPPRLPRPRPRPYSCPRP | -0.00112
RRIRVRPPRLPRPRPRPYSQPRP | 0.0117
RRIRVRPPRLPRPRPRPYTCPRP | -0.164
RRIRVRPPRLPRPRPRPYTGPRP | -0.0211
RRIRVRPPRLPRPRPRPYTKPRP | -0.868
RRIRVRPPRLPRPRPRPYVTPRP | 0.0974
RRIRVRPPRLPRPRPRPYWWPRP | -0.208
RRIRVRPPRLPRPRPRPYYHPRP | -0.877
RRIRWRPPRLPRPRPRPAANPRP | -0.136
RRIRWRPPRLPRPRPRPAAVPRP | 0.806
RRIRWRPPRLPRPRPRPAAYPRP | 0.346

Sequence | shrunken log2 fold change
RRIRWRPPRLPRPRPRPACKPRP | -0.0942
RRIRWRPPRLPRPRPRPACSPRP | 0.528
RRIRWRPPRLPRPRPRPACWPRP | 0.517
RRIRWRPPRLPRPRPRPADVPRP | -0.305
RRIRWRPPRLPRPRPRPAFKPRP | -0.00397
RRIRWRPPRLPRPRPRPAFMPRP | 0.0849
RRIRWRPPRLPRPRPRPAIYPRP | -0.259
RRIRWRPPRLPRPRPRPAKMPRP | 0.519
RRIRWRPPRLPRPRPRPALHPRP | 0.277
RRIRWRPPRLPRPRPRPANLPRP | -0.285
RRIRWRPPRLPRPRPRPANQPRP | 0.559
RRIRWRPPRLPRPRPRPANYPRP | -0.0848
RRIRWRPPRLPRPRPRPAPGPRP | 0.634
RRIRWRPPRLPRPRPRPARNPRP | 0.256
RRIRWRPPRLPRPRPRPARSPRP | 0.252
RRIRWRPPRLPRPRPRPASMPRP | -0.0478
RRIRWRPPRLPRPRPRPATCPRP | 0.275
RRIRWRPPRLPRPRPRPATKPRP | 0.273
RRIRWRPPRLPRPRPRPATMPRP | 0.0187
RRIRWRPPRLPRPRPRPATWPRP | 0.152
RRIRWRPPRLPRPRPRPAVTPRP | 0.599
RRIRWRPPRLPRPRPRPAWDPRP | 1.05
RRIRWRPPRLPRPRPRPAWLPRP | 0.61
RRIRWRPPRLPRPRPRPCATPRP | 0.183
RRIRWRPPRLPRPRPRPCCHPRP | -0.169
